Target: GST-Nur77 (UniProt P12813 1-601)
Experiment: EMSA; not given in material (EMSA according to previously described procedures, ref 34)
Conditions: protein: recombinant; tags: GST; label: 32P (alpha-32P dCTP labeling); annealed to complementary oligonucleotide

Sequence of GST-Nur77 (P12813 whole entry): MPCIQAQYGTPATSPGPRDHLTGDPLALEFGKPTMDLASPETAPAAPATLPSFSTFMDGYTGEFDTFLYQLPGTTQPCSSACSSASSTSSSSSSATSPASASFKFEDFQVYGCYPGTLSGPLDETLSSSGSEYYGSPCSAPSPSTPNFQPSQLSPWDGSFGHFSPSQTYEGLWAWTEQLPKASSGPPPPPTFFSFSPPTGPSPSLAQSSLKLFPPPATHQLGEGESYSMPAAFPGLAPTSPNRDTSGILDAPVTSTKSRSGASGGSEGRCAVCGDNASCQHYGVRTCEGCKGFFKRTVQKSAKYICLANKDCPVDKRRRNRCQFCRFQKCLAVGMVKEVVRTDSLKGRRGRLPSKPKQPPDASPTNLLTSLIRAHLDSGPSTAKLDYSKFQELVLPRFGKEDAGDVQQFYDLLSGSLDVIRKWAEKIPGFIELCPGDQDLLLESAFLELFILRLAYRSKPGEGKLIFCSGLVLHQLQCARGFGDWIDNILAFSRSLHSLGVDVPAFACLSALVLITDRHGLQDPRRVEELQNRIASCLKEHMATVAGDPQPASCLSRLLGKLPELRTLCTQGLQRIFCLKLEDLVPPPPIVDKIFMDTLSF

B1: NBRE oligonucleotide (dsDNA)
DNA 1: GGGGCTCGTGCGAAAAGGTCAAGCGCTA
DNA 2: TAGCGCTTGACCTTTTCGCACGAGCCCC
Question: Does B1 bind?
Answer: binds

— PMC4139307, “Transforming Growth Factor-β1 Signaling Represses Testicular Steroidogenesis through Cross-Talk with Orphan Nuclear Receptor Nur77”
